The source of these data is the supplement of paper PMC9170038.

This data set deals with K4 kissing-loop RNA reporter. The data set can be described thus: apparent KD of K4 kissing-loop reporter; higher = weaker reporter binding. The note with it: Eterna round: R107. As for the experimental part:
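RNA-MaP round R107: designed RNA switches with theophylline, tryptophan, arginine or FMN aptamers are transcribed on-chip within common flanks. They are titrated with a labelled K4 kissing-loop RNA reporter in RNA-MaP buffer (100 mM Tris pH 7.5, 80 mM KCl, 4 mM MgCl2), without ligand or with the indicated ligand. Median apparent KD per design.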

Where [1] appears, read: input ligand: theophylline 20 uM.
[2] abbreviates: input ligand: tryptophan 2.4 mM.
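Note: bound reporter read as fluorescence of individual clusters on recovered sequencing chips by microscopy, with normalized cluster intensities fitted with a binding model.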

“UGUGCUGUGUACUGUAAUGUUAUGCGGGAUACCAGAGUCUUUUUAUUCCCUUGGCAGCUUGAGUGAUGUUUGAUGCUGUUCUUGU [kiokmullin]”: the “apparent KD of K4 kissing-loop reporter” value reads like this: (input ligand: FMN 200 uM) 362 nM; (input ligand: arginine 13.2 mM) 301 nM; (input ligand: none) 370 nM; under setting [1], 331 nM; under setting [2], 314 nM.

Consider “GGAUGGUAGGCGGCCGCCACUAAAACUGAACACAUACAAACCAGUGAUGUUGGUAUGAUGAAGUAUAGGACCGGGCCUAGAUAGA [Exclusion - Tryptophan B (Freestyle 2)]”, for which the “apparent KD of K4 kissing-loop reporter” value reads like this: (input ligand: FMN 200 uM) 1040 nM; (input ligand: arginine 13.2 mM) 731 nM; (input ligand: none) 972 nM; under setting [1], 672 nM; under setting [2], 827 nM.

Regarding “GCAUAGCAGACGUUGAGUGGGAGCCAGGCACGAGGACCGGUACGGCCGCCACUCGACUAGGUUUUCAGUGAUGUUGAAAAUUUAG [Exclusion Tryptophan A GF4]”, the “apparent KD of K4 kissing-loop reporter” value runs as follows: (input ligand: FMN 200 uM) 151 nM; (input ligand: arginine 13.2 mM) 141 nM; (input ligand: none) 142 nM; under setting [1], 140 nM; under setting [2], 156 nM.

As to “GCCGCCGCGGCAGGAUAUAGGUUCAUGGAGUGAUGUUCCAUAACCCGAGUGAUGUUCGUUAUCCGCCUAGAAGGGCCGCGGCGGC”, the “apparent KD of K4 kissing-loop reporter” value (input ligand: FMN 200 uM) is 201 nM; the “apparent KD of K4 kissing-loop reporter” value (input ligand: arginine 13.2 mM) turned out to be 166 nM; the “apparent KD of K4 kissing-loop reporter” value (input ligand: none) was found to be 205 nM; the “apparent KD of K4 kissing-loop reporter” value under setting [1] amounted to 177 nM; the “apparent KD of K4 kissing-loop reporter” value under setting [2] came to 169 nM.

Consider “UCGAACGAUGGAAGGAGCGCUCGUCAGCCCUGCGAGUGAUGUUCGUGGGUAAAUAGUCGCGAGCAGGUAGGUCGCCAUCUUGAGC [Zainsotima]”, for which the “apparent KD of K4 kissing-loop reporter” value reads like this: (input ligand: FMN 200 uM) 123 nM; (input ligand: arginine 13.2 mM) 101 nM; (input ligand: none) 129 nM; under setting [1], 119 nM; under setting [2], 124 nM.

“AAGUGAUGUUGUAGUGAUGUUGUGAUGUUGCAGGAUAUAUAGUGAUGUAGAAGGGUAUGUUCAGUUUUUUUUUUUGAGUGUUGAU [szxmullin]”: the “apparent KD of K4 kissing-loop reporter” value (input ligand: FMN 200 uM) was found to be 84.3 nM; the “apparent KD of K4 kissing-loop reporter” value (input ligand: arginine 13.2 mM) was 35.3 nM; the “apparent KD of K4 kissing-loop reporter” value (input ligand: none) was 62.8 nM; the “apparent KD of K4 kissing-loop reporter” value under setting [1] came to 47.6 nM; the “apparent KD of K4 kissing-loop reporter” value under setting [2] was determined as 66.5 nM.

Consider “AUAUUAACUCAGUGAUGUUGAGUUGACGAAGGAGCGCUAGAGAUAGCAGGUAGGUCGCGUCAAUUUAAUGGAGACUAGCUUUACG [Arg A Ex t4]”, for which the “apparent KD of K4 kissing-loop reporter” value runs as follows: (input ligand: FMN 200 uM) 343 nM; (input ligand: arginine 13.2 mM) 297 nM; (input ligand: none) 365 nM; under setting [1], 351 nM; under setting [2], 307 nM.

On to “GCUCAGGAGUGAUGUUCCAAGUGAUGUUAACGAGGACCGGUACGGCCGCCACUCGAUACGGCCGGACCGUAAGAUAAACUAGAGC [Same State - Tryptophan A (Freestyle 8)]”, for which the “apparent KD of K4 kissing-loop reporter” value (input ligand: FMN 200 uM) was 196 nM; the “apparent KD of K4 kissing-loop reporter” value (input ligand: arginine 13.2 mM) amounted to 216 nM; the “apparent KD of K4 kissing-loop reporter” value (input ligand: none) amounted to 188 nM; the “apparent KD of K4 kissing-loop reporter” value under setting [1] was found to be 380 nM; the “apparent KD of K4 kissing-loop reporter” value under setting [2] was found to be 199 nM.

Regarding “AUUAAUAACUGAGGAUAUCGUUUUACUGUAGUGAUGUUACAGAAAAUUCACAUUAUAAUUUCUAUUCGAGAAGGCAGAAUAAUUA [JR_ExcFMNB_Sub014]”, the “apparent KD of K4 kissing-loop reporter” value (input ligand: FMN 200 uM) is 106 nM; the “apparent KD of K4 kissing-loop reporter” value (input ligand: arginine 13.2 mM) is 74.6 nM; the “apparent KD of K4 kissing-loop reporter” value (input ligand: none) was 65.2 nM; the “apparent KD of K4 kissing-loop reporter” value under setting [1] was found to be 71.9 nM; the “apparent KD of K4 kissing-loop reporter” value under setting [2] is 65.1 nM.

Turning to “GGUUUAUAGGAGGAUACCAGUACGGAUAAAGUACGUUAAUAGUAGAGUGAUGUUCUAAAGUACCCUUGGCAGCUUAGAGUGAGUU [ExTheophylB.L]”, the “apparent KD of K4 kissing-loop reporter” value was 105 nM (input ligand: FMN 200 uM); 157 nM (input ligand: arginine 13.2 mM); 122 nM (input ligand: none); 159 nM under setting [1]; 78.8 nM under setting [2].

In the case of “CAAGGGCAAGUCGAUACCAGAGACACAUACCCGCAGUGAUGUUGCAGGAAACAGUUACUUCUCCCUUGGCAGCGAAUGCGACUUC [theeternabot_sameState_KL_Theo_B_45]”, the “apparent KD of K4 kissing-loop reporter” value reads like this: (input ligand: FMN 200 uM) 348 nM; (input ligand: arginine 13.2 mM) 313 nM; (input ligand: none) 344 nM; under setting [1], 309 nM; under setting [2], 332 nM.

For the sequence “AAACAAGAUGCAGGAUAUACGGACCCAGUGAUGUUGGGUAGAAUUGUCCCGGCAAUCCUUGUGGCAGUAGAAGGGCAAUAAAAGA [Gexeraora]”, the “apparent KD of K4 kissing-loop reporter” value by setting is: (input ligand: FMN 200 uM) 271 nM; (input ligand: arginine 13.2 mM) 134 nM; (input ligand: none) 169 nM; under setting [1], 144 nM; under setting [2], 151 nM.

Turning to “AGCUCAGAGUGACUCGAUAAGAGUCACAAACGAGGACCGGUACGGCCGCCACUCGAAACAAAGAGAGUGAUGUUCUCGCUGAGCA [FiskerMod 10 - Jieux - Same State Tryptophan A]”, the “apparent KD of K4 kissing-loop reporter” value reads like this: (input ligand: FMN 200 uM) 319 nM; (input ligand: arginine 13.2 mM) 121 nM; (input ligand: none) 176 nM; under setting [1], 207 nM; under setting [2], 713 nM.

With “GCAGUGAUGUUGCGGAUGUACAGUGGAGUGCGAGGACCGGUACGGCCGCCACUCGUACAGAACAAGCUAAUACAUCGAUAGGUGA [XI]”, the “apparent KD of K4 kissing-loop reporter” value turned out to be 323 nM (input ligand: FMN 200 uM); 358 nM (input ligand: arginine 13.2 mM); 461 nM (input ligand: none); 409 nM under setting [1]; 339 nM under setting [2].

Turning to “UUAGUACAUAGAGAUACCAGCCAUCGAAGUGAUGUUUCGAGAAAUAAUGAUGUUGGUAUAGGCCCUUGGCAGCUCUAUGUACAUU [AK1 Exc Theophylline B]”, the “apparent KD of K4 kissing-loop reporter” value (input ligand: FMN 200 uM) is 103 nM; the “apparent KD of K4 kissing-loop reporter” value (input ligand: arginine 13.2 mM) stood at 95.4 nM; the “apparent KD of K4 kissing-loop reporter” value (input ligand: none) was 104 nM; the “apparent KD of K4 kissing-loop reporter” value under setting [1] worked out at 94.7 nM; the “apparent KD of K4 kissing-loop reporter” value under setting [2] was 97.4 nM.

In the case of “GGUGACAACCAGAGGUGAUGUAUAGAAUAGCGAGGACCGGUACGGCCGCCACUCGUGAAGAGAAAGGAGUGAUGUUCCGUAAUGG [Kazoo C5]”, the “apparent KD of K4 kissing-loop reporter” value was found to be 330 nM (input ligand: FMN 200 uM); 298 nM (input ligand: arginine 13.2 mM); 453 nM (input ligand: none); 485 nM under setting [1]; 166 nM under setting [2].
